Test system: T1, recombinant Factor C protein from Tachypleus tridentatus produced in Leishmania tarentolae
T1 sequence: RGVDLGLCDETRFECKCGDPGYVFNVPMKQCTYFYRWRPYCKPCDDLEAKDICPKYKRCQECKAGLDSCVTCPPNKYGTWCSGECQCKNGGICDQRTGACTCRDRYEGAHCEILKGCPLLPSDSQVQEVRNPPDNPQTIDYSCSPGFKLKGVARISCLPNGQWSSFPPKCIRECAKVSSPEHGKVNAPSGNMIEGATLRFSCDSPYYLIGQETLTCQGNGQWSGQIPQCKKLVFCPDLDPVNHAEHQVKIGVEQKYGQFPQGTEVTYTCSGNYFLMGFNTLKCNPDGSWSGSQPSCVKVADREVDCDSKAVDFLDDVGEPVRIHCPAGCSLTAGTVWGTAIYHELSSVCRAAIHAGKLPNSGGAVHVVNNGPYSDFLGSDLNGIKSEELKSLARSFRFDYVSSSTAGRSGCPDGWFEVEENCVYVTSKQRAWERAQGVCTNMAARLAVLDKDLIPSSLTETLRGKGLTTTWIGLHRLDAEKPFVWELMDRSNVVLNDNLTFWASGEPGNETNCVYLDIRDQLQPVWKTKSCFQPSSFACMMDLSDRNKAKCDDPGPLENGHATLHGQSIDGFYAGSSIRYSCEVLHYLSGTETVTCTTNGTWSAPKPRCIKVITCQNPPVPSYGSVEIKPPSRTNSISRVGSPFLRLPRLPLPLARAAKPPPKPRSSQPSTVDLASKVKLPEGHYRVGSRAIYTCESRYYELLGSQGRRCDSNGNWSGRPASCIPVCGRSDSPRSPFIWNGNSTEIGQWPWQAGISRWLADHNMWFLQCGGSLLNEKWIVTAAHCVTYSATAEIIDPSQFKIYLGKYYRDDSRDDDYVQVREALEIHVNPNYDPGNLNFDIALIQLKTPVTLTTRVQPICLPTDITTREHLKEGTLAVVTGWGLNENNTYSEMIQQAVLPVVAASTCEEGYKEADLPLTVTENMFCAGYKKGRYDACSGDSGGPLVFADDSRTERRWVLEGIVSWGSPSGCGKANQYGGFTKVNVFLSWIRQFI
Conditions: in U/mg

Substance: chymotrypsin
- specific activity of activated Factor C (hydrolysis of Boc-Val-Pro-Arg-AMC) (Units/mg protein): 0.658

Source: patent US20190256836
